Biological target: Recombinant murine serum amyloid A isoform 1.1 (murine)
Assay: cross-linking; SAA-POPC complexes hydrolyzed by sPLA2-III (0.5 mg/ml protein) with glutaraldehyde 0.01-0.08%, 30 min at 24°C, 50 mM sodium phosphate, 150 mM NaCl, pH 7.5; quenched with 100 mM Tris; SDS PAGE

stoichiometry N: 6
Substance: Recombinant murine serum amyloid A isoform 1.1 (natural protein)

Source: publication PMC6557629
